Read-outs that look alike come from different tables or passages of the source.
Columns and labels:
IL-7Rα = target: T1, IL-7Rα (Homo sapiens, UniProt P16871); experiment: Biolayer interferometry binding to IL-7Rα
T1 construct: IL-7Rα (residues 37-231, Uniprot ID P16871); IgK signal peptide (N); made in house; host or cells: mammalian cells
T1 sequence (P16871 37-231): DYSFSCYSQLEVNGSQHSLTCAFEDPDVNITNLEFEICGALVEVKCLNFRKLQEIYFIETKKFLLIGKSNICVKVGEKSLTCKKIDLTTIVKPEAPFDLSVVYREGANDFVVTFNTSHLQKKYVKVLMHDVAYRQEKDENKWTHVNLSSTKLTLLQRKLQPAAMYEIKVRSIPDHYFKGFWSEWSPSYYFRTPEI

[1] = Circular dichroism wavelength scans and temperature melts (Tm); format: physicochemical
VirB8 = format: binding, Rickettsia typhi; conditions: read-out: Octet kD
[2] = target: VirB8-like protein from Rickettsia typhi (Rickettsia typhi); experiment: BLI (Octet); biotinylated target on streptavidin sensors, miniprotein as analyte
[3] = target: Human TrkA ECD (residues 36-382) with C-terminal BAP tag and 6xHis tag (human, UniProt P04629 36-382); experiment: biolayer interferometry
Human TrkA ECD (residues 36-382) with C-terminal BAP tag and 6xHis tag, sequence (P04629 other isoform, or with tags, fused parts or gaps limits assumed): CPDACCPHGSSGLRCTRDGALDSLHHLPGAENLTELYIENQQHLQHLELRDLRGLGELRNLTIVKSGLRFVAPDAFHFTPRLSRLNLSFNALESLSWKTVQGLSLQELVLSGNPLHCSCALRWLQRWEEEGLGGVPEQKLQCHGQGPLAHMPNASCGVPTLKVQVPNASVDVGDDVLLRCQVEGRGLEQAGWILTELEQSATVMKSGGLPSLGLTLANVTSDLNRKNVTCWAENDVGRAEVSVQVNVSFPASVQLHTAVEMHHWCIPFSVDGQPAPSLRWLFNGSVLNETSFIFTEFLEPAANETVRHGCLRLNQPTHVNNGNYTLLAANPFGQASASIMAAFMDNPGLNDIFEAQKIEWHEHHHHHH

[4] = target: T2, FGFR2 ectodomain (residues 147-366) with C-terminal TEV/His/AviTag (human, UniProt P21802 147-366); experiment: biolayer interferometry
T2 construct: range 147-366; also called Fibroblast growth factor receptor 2
T2 sequence (P21802 other isoform, or with tags, fused parts or gaps limits assumed, form in doubt): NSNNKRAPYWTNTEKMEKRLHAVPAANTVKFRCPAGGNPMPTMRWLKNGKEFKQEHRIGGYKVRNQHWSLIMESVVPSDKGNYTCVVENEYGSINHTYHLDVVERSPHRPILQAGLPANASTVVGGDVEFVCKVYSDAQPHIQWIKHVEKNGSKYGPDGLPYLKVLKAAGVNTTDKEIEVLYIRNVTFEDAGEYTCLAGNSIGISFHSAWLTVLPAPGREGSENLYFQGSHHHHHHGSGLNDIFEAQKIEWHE

[5] = target: Influenza A H3 hemagglutinin (A/Hong Kong/1/1968) ectodomain (Influenza A virus (A/Hong Kong/1/1968), UniProt Q91MA7 17-530); experiment: BLI (Octet); biotinylated target on streptavidin sensors, miniprotein as analyte
[6] = target: human TrkA ECD (residues 36-382) (human, UniProt P04629 36-382); experiment: as above
human TrkA ECD (residues 36-382), sequence (P04629 other isoform, or with tags, fused parts or gaps limits assumed): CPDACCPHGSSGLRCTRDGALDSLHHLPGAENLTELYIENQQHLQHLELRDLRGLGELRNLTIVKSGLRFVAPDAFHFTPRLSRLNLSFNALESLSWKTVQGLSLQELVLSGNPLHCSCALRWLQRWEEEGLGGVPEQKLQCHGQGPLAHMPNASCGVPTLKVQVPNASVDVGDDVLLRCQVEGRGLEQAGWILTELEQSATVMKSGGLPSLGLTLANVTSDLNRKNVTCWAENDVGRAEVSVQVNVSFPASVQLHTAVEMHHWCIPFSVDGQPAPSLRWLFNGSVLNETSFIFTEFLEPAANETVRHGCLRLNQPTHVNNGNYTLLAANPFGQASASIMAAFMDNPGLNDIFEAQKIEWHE

[7] = target: T3, FGFR2 ectodomain (residues 147-366) (human, UniProt P21802 147-366); experiment: as above
T3 construct: range 147-366; also called FGER2; Fibroblast growth factor receptor 2
T3 sequence (P21802 other isoform, or with tags, fused parts or gaps limits assumed, form in doubt): as the sequence (P21802 other isoform, or with tags, fused parts or gaps limits assumed, form in doubt) above

[8] = target: T4, EGFR ectodomain (residues 25-525) (human, UniProt P00533 25-525); experiment: as above
T4 construct: also called EGER; Epidermal growth factor receptor

[9] = target: T5, PDGFR ectodomain (residues 33-314) (human, UniProt P09619 33-314); experiment: as above
T5 construct: range 33-314; also called Platelet-derived growth factor receptor
T5 sequence (P09619 other isoform, or with tags, fused parts or gaps limits assumed): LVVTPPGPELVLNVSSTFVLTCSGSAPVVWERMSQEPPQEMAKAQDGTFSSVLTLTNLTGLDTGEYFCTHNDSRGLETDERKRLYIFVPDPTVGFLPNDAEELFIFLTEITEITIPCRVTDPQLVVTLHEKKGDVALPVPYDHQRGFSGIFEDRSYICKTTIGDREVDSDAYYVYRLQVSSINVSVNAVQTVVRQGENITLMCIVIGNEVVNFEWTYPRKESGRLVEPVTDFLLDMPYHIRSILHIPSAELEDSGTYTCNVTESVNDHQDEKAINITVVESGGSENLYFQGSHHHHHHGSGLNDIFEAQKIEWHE

[10] = target: T6, InsulinR ectodomain (residues 28-953) (human, UniProt P06213 28-953); experiment: BLI (Octet); miniprotein immobilized on AR2G sensors, insulin receptor as analyte
T6 construct: range 28-953; also called IR; Insulin receptor

IGF1R = target: T7, IGF1R (Homo sapiens, UniProt P08069); experiment: Biolayer interferometry binding to IGF1R (MBP-tagged miniprotein as analyte)
T7 construct: IGF1R (residues 31-930, Uniprot ID P08069); IgK signal peptide (N); made in house; host or cells: mammalian cells

[11] = target: T8, IGF1R ectodomain (residues 31-930) (human, UniProt P08069 31-930); experiment: BLI (Octet); biotinylated target on streptavidin sensors, MBP-tagged miniprotein as analyte
T8 construct: range 31-930; also called IGFIR; Insulin-like growth factor 1 receptor

[12] = target: T9, Tie2 ectodomain (residues 23-445) (human, UniProt Q02763 23-445); experiment: as above
T9 construct: range 23-445; also called Angiopoietin-1 receptor
T9 sequence (Q02763 other isoform, or with tags, fused parts or gaps limits assumed): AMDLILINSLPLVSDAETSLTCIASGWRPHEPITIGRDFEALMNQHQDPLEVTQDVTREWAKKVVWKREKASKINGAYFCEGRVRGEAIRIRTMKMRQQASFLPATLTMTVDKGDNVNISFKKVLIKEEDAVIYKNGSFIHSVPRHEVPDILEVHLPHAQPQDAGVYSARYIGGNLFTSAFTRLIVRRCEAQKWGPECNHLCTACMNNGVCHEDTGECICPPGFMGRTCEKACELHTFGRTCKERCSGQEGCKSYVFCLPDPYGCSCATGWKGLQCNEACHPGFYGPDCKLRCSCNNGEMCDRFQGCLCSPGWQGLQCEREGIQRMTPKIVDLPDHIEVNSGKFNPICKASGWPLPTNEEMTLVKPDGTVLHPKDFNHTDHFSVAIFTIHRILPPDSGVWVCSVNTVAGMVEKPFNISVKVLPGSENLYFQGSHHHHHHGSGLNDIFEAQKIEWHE

[13] = target: IL-7Rα ectodomain (residues 37-231) (human, UniProt P16871 37-231); experiment: BLI (Octet); biotinylated target on streptavidin sensors, miniprotein as analyte
IL-7Rα ectodomain (residues 37-231), sequence (P16871 other isoform, or with tags, fused parts or gaps limits assumed): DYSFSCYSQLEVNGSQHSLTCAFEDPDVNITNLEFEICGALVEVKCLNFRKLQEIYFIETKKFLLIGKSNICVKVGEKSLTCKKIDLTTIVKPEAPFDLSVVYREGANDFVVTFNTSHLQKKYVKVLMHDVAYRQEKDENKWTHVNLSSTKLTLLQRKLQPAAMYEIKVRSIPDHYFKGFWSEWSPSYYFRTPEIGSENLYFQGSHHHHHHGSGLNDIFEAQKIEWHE

[14] = target: T10, Biotinylated CD3 protein (Abcam Cat #ab205994) (human, UniProt P04234 22-105); experiment: as above
T10 construct: also called CD3δ; CD3 delta chain
T10 sequence (P04234 22-105 limits assumed): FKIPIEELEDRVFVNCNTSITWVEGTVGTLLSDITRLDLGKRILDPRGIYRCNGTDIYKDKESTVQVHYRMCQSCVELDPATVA

[15] = target: T11, TGF-β (Acro Biosystems Cat #TG1-H8217) (human, UniProt P01137 279-390); experiment: as above
T11 construct: also called TGFb; Transforming growth factor beta
T11 sequence (P01137 279-390 limits assumed): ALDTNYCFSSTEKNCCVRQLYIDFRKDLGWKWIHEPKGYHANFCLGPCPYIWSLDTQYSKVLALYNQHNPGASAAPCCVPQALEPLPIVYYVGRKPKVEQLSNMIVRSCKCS

[16] = target: T12, Influenza A H1 hemagglutinin (A/Puerto Rico/8/1934), ectodomain (Influenza A virus (A/Puerto Rico/8/1934), UniProt P03452 18-528); experiment: method not named in the sentence (FIG. 7b)
T12 construct: extracellular domain

FGFR2 = target: T13, FGFR2 (Homo sapiens, UniProt P21802); experiment: Biolayer interferometry binding to FGFR2
T13 construct: FGFR2 (residues 147-366, Uniprot ID P21802); IgK signal peptide (N); made in house; host or cells: mammalian cells
T13 sequence (P21802 147-366): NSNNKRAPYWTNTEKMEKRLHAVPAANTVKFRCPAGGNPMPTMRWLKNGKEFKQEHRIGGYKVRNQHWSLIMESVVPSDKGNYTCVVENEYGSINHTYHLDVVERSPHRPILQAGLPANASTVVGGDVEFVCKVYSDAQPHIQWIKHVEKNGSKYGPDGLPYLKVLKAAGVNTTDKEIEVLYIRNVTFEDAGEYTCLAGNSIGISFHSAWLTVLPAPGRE

signaling through FGFR2 = experiment: Inhibition of native agonist signaling through FGFR2 on cells in culture; format: cell-based; conditions: data not shown
InsulinR = target: T14, InsulinR (Homo sapiens, UniProt P06213); experiment: Biolayer interferometry binding to InsulinR (miniprotein on AR2G biosensor, receptor as analyte)
T14 construct: InsulinR (residues ID 28-953, Uniprot ID P06213); IgK signal peptide (N); TEV cleavage site (C); 6-His-tag (C); AviTag (C); made in house; host or cells: mammalian cells

Tie2 = target: T15, Tie2 (Homo sapiens, UniProt Q02763); experiment: Biolayer interferometry binding to Tie2 (MBP-tagged miniprotein as analyte)
T15 construct: Tie2 (residues 23-445, Uniprot ID Q02763); IgK signal peptide (N); made in house; host or cells: mammalian cells
T15 sequence (Q02763 23-445): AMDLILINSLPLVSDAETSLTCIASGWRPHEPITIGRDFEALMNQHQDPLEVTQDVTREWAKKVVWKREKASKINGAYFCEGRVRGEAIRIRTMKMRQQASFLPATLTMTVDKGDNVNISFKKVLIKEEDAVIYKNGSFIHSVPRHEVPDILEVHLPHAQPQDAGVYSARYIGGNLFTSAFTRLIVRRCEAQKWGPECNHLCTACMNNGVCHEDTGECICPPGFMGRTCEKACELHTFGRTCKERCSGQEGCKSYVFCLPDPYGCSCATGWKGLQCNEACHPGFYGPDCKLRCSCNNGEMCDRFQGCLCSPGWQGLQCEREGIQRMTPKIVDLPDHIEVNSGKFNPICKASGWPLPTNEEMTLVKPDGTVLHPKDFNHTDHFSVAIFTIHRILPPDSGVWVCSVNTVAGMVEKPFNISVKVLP

IL-7Rα binder: de novo miniprotein binder for IL-7Rα targeting the IL-7 binding site; probably IL7Ra_mb2, SEQ ID NO: 760 (SVKKKVRKVEKKARKAGDELAVLLARRVLEALEKGLVSEEDADESADRIEEALKK)
affinity for IL-7Rα (in words) (IL-7Rα; targeting the IL-7 binding site): picomolar affinity

IL-7Rα_mb (SVIEKLRKLEKQARKQGDEVLVMLARMVLEYLEKGWVSEEDADESADRIEEVLKK)
Kd (IL-7Rα; target IL-7Rα, optimized sequence, read-out: Octet kD): 0.312 nM | TM ([1]; optimized sequence): >95 °C

B1: VirB8_mb (designed binder)
chain: MSHHHHHHHHSENLYFQSGGGNAEEITEKATLVGIEAWLLAKDEEQKKKVRTLNRQVKKLLQQNDLDQAKRVLDQLKSVLEDLKS
Kd (VirB8): 0.5 nM | TM [1]: 66.2 °C | Kd [2]: 0.5 nM

B2: TrkA_mb (optimized TrkA binder, purified from E. coli) (designed binder)
chain: MSHHHHHHHHSENLYFQSGGGRDEIKERIFKAVVRAIVTGNPEQLKEAKKLLEKLKKLGRLDQDAKKFEKAIRQVEKRLRS
Kd [3]: ≤ 1 nM

B3: FGFR2_mb (optimized FGFR2 binder, purified from E. coli) (designed binder)
chain: MSHHHHHHHHSENLYFQSGGGDRRKEMDKVYRTAFKRITSTPDKEKRKEVVKEATEQLRRIAKDEEEKKKAAYMILFLKTLG
notes: also called FGFR2_mb3
Kd [4]: ≤ 1 nM

B4: H3_mb (designed binder)
chain: MSHHHHHHHHSENLYFQSGGGSQHEKFLEWMLRKIEEAIKRGNKISAEFLINLAKNFIHVLGDDEIRRRLERLERQLH
TM [1]: >95 °C | Kd [5]: 320 nM

B5: TrkA_mb (designed binder)
chain: B2 chain
Kd [6]: 1.4 nM

B6: FGFR2_mb (designed binder)
chain: B3 chain
TM ([1]; optimized sequence): 71.1 ºC ° C. | Kd [7]: 0.543 nM

B7: EGFRn_mb (designed binder)
chain: MSHHHHHHHHSENLYFQSGGGDHWEEVFRWALEHLQEATQQNDPQKAKKILEEAHKWLRRELSEEEARAVVRWLKQLVDRELS
TM ([1]; optimized sequence): >95 °C | Kd [8]: 1.7 nM

B8: EGFRc_mb (designed binder)
chain: MSHHHHHHHHSENLYFQSGGGSLDEAKKLLQEAEKLARKLNDRMELAYVEFLKHILETAKKQNDKRTIESVRDMARDALEELQS
TM ([1]; optimized sequence): 71.2 °C | Kd [8]: 6.8 nM

B9: PDGFR_mb (designed binder)
chain: MSHHHHHHHHSENLYFQSGGGDDERLATLAFRALIKRAGVKNLDVKVTNGKVRVTITGRDQASFKALQLVFALARRLGLQVQIDTR
TM ([1]; optimized sequence): >95 °C | Kd [9]: 53 nM

B10: InsulinR_mb (designed binder)
chain: MSHHHHHHHHSENLYFQSGGGDEELMELVYEAVEKNDPELLFEAWMELASLLDETGDPKIEEALGLLQQVDGGNPDAGRRIKELFK
TM ([1]; optimized sequence): 65 °C ° C. | Kd [10]: 270 nM

B11: MBP-tagged IGF1R_mb (designed binder)
chain: STRNAEFIMLLLELCVKSKNDPQVQEYVKKVKKQVERLVGNGDEKKAEEVARKALEYCADG
notes: not shown: N-terminal 6 His-tag and MBP tag
binding affinity for IGF1R (in words) (IGF1R): weak and low | TM ([1]; optimized sequence): >95 °C | Kd [11]: 860 nM

B12: MBP-tagged Tie2_mb (designed binder)
chain: SIDEELERLLEEAGVDPELIDDLYAVIYQLYIRGLSDKDVLRFLLENLERDGTPLRRVVEELLKR
notes: as for B11
Kd [12]: 584 nM

B13: IL-7Rα_mb (designed binder)
chain: MSHHHHHHHHSENLYFQSGGGSVIEKLRKLEKQARKQGDEVLVMLARMVLEYLEKGWVSEEDADESADRIEEVLKK
Kd [13]: 0.312 nM

B14: CD3δ_mb (designed binder)
chain: MSHHHHHHHHSENLYFQSGGGNHIACEIHNPEAAKEIAKVANVRRVYFIKQPGNRYFVLLKNADPEGVKKVRSKYNVRCVIRE
TM ([1]; optimized sequence): >95 °C | Kd [14]: 612 nM

B15: TGF-β_mb (designed binder)
chain: MSHHHHHHHHSENLYFQSGGGHCTIEVVGVDPEKVEAIAAAYGAEVCEKDGKFEIHLDDPHSAESAAVAISVLTNRPVRLQC
TM ([1]; optimized sequence): >95 °C | Kd [15]: 270 nM

B16: H3_mb (optimized H3 hemagglutinin binder, purified from E. coli) (designed binder)
chain: B4 chain
binding result [16]: binds

B17: FGFR2 binder: optimized de novo miniprotein binder to FGFR2; probably SEQ ID NO: 144 (protein)
chain: DRRKEMDKVYRTAFKRITSTPDKEKRKEVVKEATEQLRRIAKDEEEKKKAAYMILFLKTLG
affinity for FGFR2 (in words) (FGFR2): picomolar | inhibition of signaling through FGFR2 by the native agonist (signaling through FGFR2): strong inhibition of signaling

B18: InsulinR binder: optimized de novo miniprotein binder to insulin receptor; probably InsulinR_mb5, SEQ ID NO: 788 (protein)
chain: DEELLELVYEAVEKNDPRLLFEAWMILASLLDKTGDPKIEELLRLLQLVDRGDPDARRRIKELFK
binding affinity for InsulinR (in words) (InsulinR): weak

B19: Tie2 binder: optimized de novo miniprotein binder to Tie2; probably Tie2_mb2, SEQ ID NO: 1451 (protein)
chain: B12 chain
binding affinity for Tie2 (in words) (Tie2): weak and low

B20: Tie2_mb (protein)
chain: B12 chain
modifications: left off: large carriers
TM ([1]; optimized sequence): >95 °C
